Data published in publication PMC8564508.

How the values were obtained:
[1] = target: LH1-RC complex of Rba. sphaeroides IL106 (wild type) (Rhodobacter sphaeroides f. sp. denitrificans strain IL106) (UniProt Q3J1A4); assay: sucrose density gradient centrifugation; supernatant of chromatophores solubilised with 1.0% w/v DDM on a stepwise sucrose gradient (10-40% w/v), 20 mM Tris-HCl pH 8.0, 0.05% w/v DDM, 4 °C, 150,000 x g, 6 h; ratio from volumes and absorption of the dimeric and monomeric layers
[2] = target: LH1-RC complex of the protein-U-deleted strain IL106-ΔU (Rhodobacter sphaeroides f. sp. denitrificans strain IL106) (UniProt Q3J1A4); assay: as above

| ratio of dimeric to monomeric LH1-RC [1] | stoichiometry N [1] | ratio of dimeric to monomeric LH1-RC [2] | stoichiometry N [2] | Substance |
| --- | --- | --- | --- | --- |
| 0.44 | 2 |  |  | LH1-RC complex of Rba. sphaeroides IL106 (wild type) (from UniProt Q3J1A4 1-58; Q3J1A3 1-49; P0C0Y8 1-282; P0C0Y9 1-308; P0C0Y7 1-260; P13402 1-82) |
|  |  | 0.15 | 2 | LH1-RC complex of the protein-U-deleted strain IL106-ΔU (from UniProt Q3J1A4 1-58; Q3J1A3 1-49; P0C0Y8 1-282; P0C0Y9 1-308; P0C0Y7 1-260; P13402 1-82) |
